Laboratory results as given in patent publication US20120322135A1.

How the values were obtained:
[1] = target: rabies virus antibody (antigen), first of the two types used in the screening ELISA (AS 1) (rabies virus); test: ELISA, 150 µl culture supernatant
[2] = target: rabies virus antibody (antigen), second of the two types used in the screening ELISA (AS 2) (rabies virus); test: ELISA, 150 µl culture supernatant
[3] = target: rabies virus antibody (antigen), first of the two types used in the screening ELISA (AS 1) (rabies virus); test: ELISA, 10 ml culture cell breakage liquid
[4] = target: rabies virus antibody (antigen), second of the two types used in the screening ELISA (AS 2) (rabies virus); test: ELISA, 10 ml culture cell breakage liquid

Binder | AS 1 (Antigen Specificity, ELISA signal) [1] | AS 2 (Antigen Specificity, ELISA signal) [2] | AS 1 (Antigen Specificity, ELISA signal) [3] | AS 2 (Antigen Specificity, ELISA signal) [4]
LC22F6 (protein) light: DIVMTQSPLSLPVTPGEPASISCRSSQSLLHSNGFNYLDWYLQKPGQSPQLLIYLGSTRASGVPDRFSGSGSGTDFTLRISRVEAEDVGVYFCMQAVQTPFTFGPGTRLDIKRTVAAPSVFIFPPSDEQLKSGTASVVCLLNNFYPREAKVQWKVDNALQSGNSQESVTEQDSKDSTYSLSSTLTLSKADYEKHKVYACEVTHQGLSSPVTKSFNRGEC | 0.275 | 0.175 | 0.5 | 2.77
LC23F1 (protein) light: DIVMTQTPLSSPVTLGQPASISCRSSQSLVHSDGNTYLSWLQQRPGQPPRLLIYKISNRFSGVPDRFSGSGAGTDFTLKISRVEAEDVGIYYCMQGLQTPLTFGGGTKVDLKRTVAAPSVFIFPPSDEQLKSGTASVVCLLNNFYPREAKVQWKVDNALQSGNSQESVTEQDSKDSTYSLSSTLTLSKADYEKHKVYACEVTHQGLSSPVTKSFNRGEC | 0.249 | 0.219 | 0.821 | 2.95
